Source: PMC11574045, “A cofactor-induced repressive type of transcription factor condensation can be induced by synthetic peptides to suppress tumorigenesis” (The EMBO Journal, 2024)

B1: LMX1B (protein, UniProt O60663 1-402, looked up)
LIM homeobox transcription …: MDIATGPESLERCFPRGQTDCAKMLDGIKMEEHALRPGPATLGVLLGSDCPHPAVCEGCQRPISDRFLMRVNESSWHEECLQCAACQQALTTSCYFRDRKLYCKQDYQQLFAAKCSGCMEKIAPTEFVMRALECVYHLGCFCCCVCERQLRKGDEFVLKEGQLLCKGDYEKEKDLLSSVSPDESDSVKSEDEDGDMKPAKGQGSQSKGSGDDGKDPRRPKRPRTILTTQQRRAFKASFEVSSKPCRKVRETLAAETGLSVRVVQVWFQNQRAKMKKLARRHQQQQEQQNSQRLGQEVLSSRMEGMMASYTPLAPPQQQIVAMEQSPYGSSDPFQQGLTPPQMPGDHMNPYGNDSIFHDIDSDTSLTSLSDCFLGSSDVGSLQARVGNPIDRLYSMQSSYFAS
B2: ASCL2 (protein, UniProt Q99929 1-193, looked up)
Achaete-scute homolog 2: MDGGTLPRSAPPAPPVPVGCAARRRPASPELLRCSRRRRPATAETGGGAAAVARRNERERNRVKLVNLGFQALRQHVPHGGASKKLSKVETLRSAVEYIRALQRLLAEHDAVRNALAGGLRPQAVRPSAPRGPPGTTPVAASPSRASSSPGRGGSSEPGSPRSAYSSDDSGCEGALSPAERELLDFSSWLGGY
B3: MAD (protein, UniProt Q05195 1-221, looked up)
Max dimerization protein 1: MAAAVRMNIQMLLEAADYLERREREAEHGYASMLPYNNKDRDALKRRNKSKKNNSSSRSTHNEMEKNRRAHLRLCLEKLKGLVPLGPESSRHTTLSLLTKAKLHIKKLEDCDRKAVHQIDQLQREQRHLKRQLEKLGIERIRMDSIGSTVSSERSDSDREEIDVDVESTDYLTGDLDWSSSSVSDSDERGSMQSLGSDEGYSSTSIKRIKLQDSHKACLGL
B4: MAD3 (protein, UniProt Q9BW11 1-206, looked up)
Max dimerization protein 3: MEPLASNIQVLLQAAEFLERREREAEHGYASLCPHRSPGPIHRRKKRPPQAPGAQDSGRSVHNELEKRRRAQLKRCLERLKQQMPLGADCARYTTLSLLRRARMHIQKLEDQEQRARQLKERLRSKQQSLQRQLEQLRGLAGAAERERLRADSLDSSGLSSERSDSDQEELEVDVESLVFGGEAELLRGFVAGQEHSYSHGGGAWL
B5: MADH1 (protein, UniProt Q15797 1-465, looked up)
Mothers against …: MNVTSLFSFTSPAVKRLLGWKQGDEEEKWAEKAVDALVKKLKKKKGAMEELEKALSCPGQPSNCVTIPRSLDGRLQVSHRKGLPHVIYCRVWRWPDLQSHHELKPLECCEFPFGSKQKEVCINPYHYKRVESPVLPPVLVPRHSEYNPQHSLLAQFRNLGQNEPHMPLNATFPDSFQQPNSHPFPHSPNSSYPNSPGSSSSTYPHSPTSSDPGSPFQMPADTPPPAYLPPEDPMTQDGSQPMDTNMMAPPLPSEINRGDVQAVAYEEPKHWCSIVYYELNNRVGEAFHASSTSVLVDGFTDPSNNKNRFCLGLLSNVNRNSTIENTRRHIGKGVHLYYVGGEVYAECLSDSSIFVQSRNCNYHHGFHPTTVCKIPSGCSLKIFNNQEFAQLLAQSVNHGFETVYELTKMCTIRMSFVKGWGAEYHRQDVTSTPCWIEIHLHGPLQWLDKVLTQMGSPHNPISSVS
B6: MADH4 (protein, UniProt Q13485 1-552, looked up)
Mothers against …: MDNMSITNTPTSNDACLSIVHSLMCHRQGGESETFAKRAIESLVKKLKEKKDELDSLITAITTNGAHPSKCVTIQRTLDGRLQVAGRKGFPHVIYARLWRWPDLHKNELKHVKYCQYAFDLKCDSVCVNPYHYERVVSPGIDLSGLTLQSNAPSSMMVKDEYVHDFEGQPSLSTEGHSIQTIQHPPSNRASTETYSTPALLAPSESNATSTANFPNIPVASTSQPASILGGSHSEGLLQIASGPQPGQQQNGFTGQPATYHHNSTTTWTGSRTAPYTPNLPHHQNGHLQHHPPMPPHPGHYWPVHNELAFQPPISNHPAPEYWCSIAYFEMDVQVGETFKVPSSCPIVTVDGYVDPSGGDRFCLGQLSNVHRTEAIERARLHIGKGVQLECKGEGDVWVRCLSDHAVFVQSYYLDREAGRAPGDAVHKIYPSAYIKVFDLRQCHRQMQQQAATAQAAAAAQAAAVAGNIPGPGSVGGIAPAISLSAAAGIGVDDLRRLCILRMSFVKGWGPDYPRQSIKETPCWIEIHLHRALQLLDEVLHTMPIADPQPLD
B7: MAEL (protein, UniProt Q96JY0 1-434, looked up)
Protein maelstrom homolog: MPNRKASRNAYYFFVQEKIPELRRRGLPVARVADAIPYCSSDWALLREEEKEKYAEMAREWRAAQGKDPGPSEKQKPVFTPLRRPGMLVPKQNVSPPDMSALSLKGDQALLGGIFYFLNIFSHGELPPHCEQRFLPCEIGCVKYSLQEGIMADFHSFINPGEIPRGFRFHCQAASDSSHKIPISNFERGHNQATVLQNLYRFIHPNPGNWPPIYCKSDDRTRVNWCLKHMAKASEIRQDLQLLTVEDLVVGIYQQKFLKEPSKTWIRSLLDVAMWDYSSNTRCKWHEENDILFCALAVCKKIAYCISNSLATLFGIQLTEAHVPLQDYEASNSVTPKMVVLDAGRYQKLRVGSSGFSHFNSSNEEQRSNTPIGDYPSRAKISGQNSSVRGRGITRLLESISNSSSNIHKFSNCDTSLSPYMSQKDGYKSFSSLS
B8: MAGED1 (protein, UniProt Q9Y5V3 1-778, looked up)
Melanoma-associated antigen D1: MAQKMDCGAGLLGFQAEASVEDSALLMQTLMEAIQISEAPPTNQATAAASPQSSQPPTANEMADIQVSAAAARPKSAFKVQNATTKGPNGVYDFSQAHNAKDVPNTQPKAAFKSQNATPKGPNAAYDFSQAATTGELAANKSEMAFKAQNATTKVGPNATYNFSQSLNANDLANSRPKTPFKAWNDTTKAPTADTQTQNVNQAKMATSQADIETDPGISEPDGATAQTSADGSQAQNLESRTIIRGKRTRKINNLNVEENSSGDQRRAPLAAGTWRSAPVPVTTQNPPGAPPNVLWQTPLAWQNPSGWQNQTARQTPPARQSPPARQTPPAWQNPVAWQNPVIWPNPVIWQNPVIWPNPIVWPGPVVWPNPLAWQNPPGWQTPPGWQTPPGWQGPPDWQGPPDWPLPPDWPLPPDWPLPTDWPLPPDWIPADWPIPPDWQNLRPSPNLRPSPNSRASQNPGAAQPRDVALLQERANKLVKYLMLKDYTKVPIKRSEMLRDIIREYTDVYPEIIERACFVLEKKFGIQLKEIDKEEHLYILISTPESLAGILGTTKDTPKLGLLLVILGVIFMNGNRASEAVLWEALRKMGLRPGVRHPLLGDLRKLLTYEFVKQKYLDYRRVPNSNPPEYEFLWGLRSYHETSKMKVLRFIAEVQKRDPRDWTAQFMEAADEALDALDAAAAEAEARAEARTRMGIGDEAVSGPWSWDDIEFELLTWDEEGDFGDPWSRIPFTFWARYHQNARSRFPQTFAGPIIGPGGTASANFAANFGAIGFFWVE
B9: ASCL3 (protein, UniProt Q9NQ33 1-181, looked up)
Achaete-scute homolog 3: MMDNRGNSSLPDKLPIFPDSARLPLTRSFYLEPMVTFHVHPEAPVSSPYSEELPRLPFPSDSLILGNYSEPCPFSFPMPYPNYRGCEYSYGPAFTRKRNERERQRVKCVNEGYAQLRHHLPEEYLEKRLSKVETLRAAIKYINYLQSLLYPDKAETKNNPGKVSSMIATTSHHADPMFRIV
B10: MBLR (protein, UniProt Q9BYE7 1-350, looked up)
Polycomb group RING finger …: MEGVAVVTAGSVGAAKTEGAAALPPPPPVSPPALTPAPAAGEEGPAPLSETGAPGCSGSRPPELEPERSLGRFRGRFEDEDEELEEEEELEEEEEEEEEDMSHFSLRLEGGRQDSEDEEERLINLSELTPYILCSICKGYLIDATTITECLHTFCKSCIVRHFYYSNRCPKCNIVVHQTQPLYNIRLDRQLQDIVYKLVINLEEREKKQMHDFYKERGLEVPKPAVPQPVPSSKGRSKKVLESVFRIPPELDMSLLLEFIGANEGTGHFKPLEKKFVRVSGEATIGHVEKFLRRKMGLDPACQVDIICGDHLLEQYQTLREIRRAIGDAAMQDGLLVLHYGLVVSPLKIT
B11: MDFI (protein, UniProt Q99750 1-246, looked up)
MyoD family inhibitor: MYQVSGQRPSGCDAPYGAPSAAPGPAQTLSLLPGLEVVTGSTHPAEAAPEEGSLEEAATPMPQGNGPGIPQGLDSTDLDVPTEAVTCQPQGNPLGCTPLLPNDSGHPSELGGTRRAGNGALGGPKAHRKLQTHPSLASQGSKKSKSSSKSTTSQIPLQAQEDCCVHCILSCLFCEFLTLCNIVLDCATCGSCSSEDSCLCCCCCGSGECADCDLPCDLDCGILDACCESADCLEICMECCGLCFSS
B12: MDM4 (protein, UniProt O15151 1-490, looked up)
Protein Mdm4: MTSFSTSAQCSTSDSACRISPGQINQVRPKLPLLKILHAAGAQGEMFTVKEVMHYLGQYIMVKQLYDQQEQHMVYCGGDLLGELLGRQSFSVKDPSPLYDMLRKNLVTLATATTDAAQTLALAQDHSMDIPSQDQLKQSAEESSTSRKRTTEDDIPTLPTSEHKCIHSREDEDLIENLAQDETSRLDLGFEEWDVAGLPWWFLGNLRSNYTPRSNGSTDLQTNQDVGTAIVSDTTDDLWFLNESVSEQLGVGIKVEAADTEQTSEEVGKVSDKKVIEVGKNDDLEDSKSLSDDTDVEVTSEDEWQCTECKKFNSPSKRYCFRCWALRKDWYSDCSKLTHSLSTSDITAIPEKENEGNDVPDCRRTISAPVVRPKDAYIKKENSKLFDPCNSVEFLDLAHSSESQETISSMGEQLDNLSEQRTDTENMEDCQNLLKPCSLCEKRPRDGNIIHGRTGHLVTCFHCARRLKKAGASCPICKKEIQLVIKVFIA
B13: MEF2A (protein, UniProt Q02078 1-507, looked up)
Myocyte-specific enhancer …: MGRKKIQITRIMDERNRQVTFTKRKFGLMKKAYELSVLCDCEIALIIFNSSNKLFQYASTDMDKVLLKYTEYNEPHESRTNSDIVEALNKKEHRGCDSPDPDTSYVLTPHTEEKYKKINEEFDNMMRNHKIAPGLPPQNFSMSVTVPVTSPNALSYTNPGSSLVSPSLAASSTLTDSSMLSPPQTTLHRNVSPGAPQRPPSTGNAGGMLSTTDLTVPNGAGSSPVGNGFVNSRASPNLIGATGANSLGKVMPTKSPPPPGGGNLGMNSRKPDLRVVIPPSSKGMMPPLSEEEELELNTQRISSSQATQPLATPVVSVTTPSLPPQGLVYSAMPTAYNTDYSLTSADLSALQGFNSPGMLSLGQVSAWQQHHLGQAALSSLVAGGQLSQGSNLSINTNQNISIKSEPISPPRDRMTPSGFQQQQQQQQQQQPPPPPQPQPQPPQPQPRQEMGRSPVDSLSSSSSSYDGSDREDPRGDFHSPIVLGRPPNTEDRESPSVKRMRMDAWVT
B14: MEIS3 (protein, UniProt Q99687 1-375, looked up)
Homeobox protein Meis3: MARRYDELPHYPGIVDGPAALASFPETVPAVPGPYGPHRPPQPLPPGLDSDGLKREKDEIYGHPLFPLLALVFEKCELATCSPRDGAGAGLGTPPGGDVCSSDSFNEDIAAFAKQVRSERPLFSSNPELDNLMIQAIQVLRFHLLELEKVHDLCDNFCHRYITCLKGKMPIDLVIEDRDGGCREDFEDYPASCPSLPDQNNMWIRDHEDSGSVHLGTPGPSSGGLASQSGDNSSDQGDGLDTSVASPSSGGEDEDLDQERRRNKKRGIFPKVATNIMRAWLFQHLSHPYPSEEQKKQLAQDTGLTILQVNNWFINARRRIVQPMIDQSNRTGQGAAFSPEGQPIGGYTETQPHVAVRPPGSVGMSLNLEGEWHYL

Test system: HEK293FT cells transfected with TF library
Assay: Screening of TF condensates based on fluorescent puncta
Format: cell-based
Details: Figure 1B numerical data; TF library screen, one value per transcriptional factor
Procedure, shortened: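 Each TF construct was introduced into HEK293FT cells using PEI at 4.8 μg/ml; glucose deprivation versus normal medium lasted 12 h. Automated confocal-style imaging of tagged TF staining, 50 fields per well, gave the puncta data.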

First: B1
Second: B2
The “Z score of condensed fraction” value of the first is lower: 0.1118 for the first, 0.864 for the second.

Compared with B3, B4 is lower in “Z score of condensed fraction” value: 0.4682 for the first, -1.116 for the second.

Going from B5 to B6, the “Z score of condensed fraction” value falls from -0.2284 to -0.6861.

First: B7
Second: B8
The “Z score of condensed fraction” value of the first is lower: -0.816 for the first, -0.7984 for the second.

Going from B9 to B10, the “Z score of condensed fraction” value rises from 0.02457 to 0.4702.

Going from B11 to B12, the “Z score of condensed fraction” value rises from 0.558 to 2.3.

Compared with B13, B14 is higher in “Z score of condensed fraction” value: -0.6589 for the first, 1.7837 for the second.
